We go through three compounds from article PMC9404779, “Oxidative Implications of Substituting a Conserved Cysteine Residue in Sugar Beet Phytoglobin BvPgb 1.2” (Antioxidants, 2022).

Experiment [1] has as its target BvPgb1.2 Cys86Ala mutant (Beta vulgaris (sugar beet)). The experiment in a line: SEC; analytical SEC, Superdex 75 10/300 GL, 50 mM NaP with 150 mM NaCl pH 7.0, 100 µL of 1 mg/mL protein; MW from retention volume on a calibration curve; dimer of monomers.
Experiment [2] addresses T1, BvPgb1.2 (Beta vulgaris, UniProt V5QR23).
T1 construct: gene Bv9_224250_aayd.t2; recombinant from E. coli BL21(DE3), pET-DEST42
The experiment in a line: peroxidase assay, absorbance of ABTS radical cation at […] nm. Format: biochemical. As to conditions: 10 mM H2O2, 5 mM ABTS, 50 mM Tris-HCl pH 8.5; protein incubated at 22 or 37 °C.

The target of experiment [3] is Wildtype (WT) BvPgb1.2, Class 1 phytoglobin from sugar beet (Beta vulgaris) (Beta vulgaris (sugar beet)). The experiment is described as follows: SEC; analytical SEC, Superdex 75 10/300 GL, 50 mM NaP with 150 mM NaCl pH 7.0, 100 µL of 1 mg/mL protein; MW from retention volume on a calibration curve; dimer of monomers.

Where a name gives a salt, the structure may show the parent alone.

T1 sequence (V5QR23 1-171): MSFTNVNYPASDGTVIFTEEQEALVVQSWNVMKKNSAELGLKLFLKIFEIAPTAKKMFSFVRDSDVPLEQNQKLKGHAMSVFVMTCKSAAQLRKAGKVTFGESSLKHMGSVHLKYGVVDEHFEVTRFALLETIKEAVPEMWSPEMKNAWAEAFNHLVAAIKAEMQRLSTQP

On to “BvPgb1.2 Cys86Ala mutant (natural protein)”, for which, in experiment [1], the degree of dimerization is more than 99% and the stoichiometry N is 2.

As for `CCn1c(=NN=c2sc3cc(S(=O)(=O)O)ccc3n2CC)sc2cc(S(=O)(=O)O)ccc21` [2,2′-azino-di-(3-ethylbenzthiazolinesulfonic acid) diammonium salt], the “peroxidase assay, absorbance of ABTS radical cation at 415 nm” value in experiment [2] is reported as “The detectable radical formation of ABTS was used in this study to quantify this”.

Turning to “Wildtype (WT) BvPgb1.2, Class 1 phytoglobin from sugar beet (Beta vulgaris) (natural protein)”, in experiment [3], the degree of dimerization is more than 99% and the stoichiometry N came out at 2.
